Test results: patent publication US20170081400A1 (CEPHALON, published 2017)

Key:
[1] = target: T1, human TL1A extracellular domain with N-terminal HIS and FLAG tag (human, UniProt O95150 72-251); assay: KinExA, TL1A as CBP, free TL1A captured on 320-587-coated PMMA beads; repeat 1
T1 construct: whole entry named. ~70 kDa fraction purified by gel filtration
T1 sequence: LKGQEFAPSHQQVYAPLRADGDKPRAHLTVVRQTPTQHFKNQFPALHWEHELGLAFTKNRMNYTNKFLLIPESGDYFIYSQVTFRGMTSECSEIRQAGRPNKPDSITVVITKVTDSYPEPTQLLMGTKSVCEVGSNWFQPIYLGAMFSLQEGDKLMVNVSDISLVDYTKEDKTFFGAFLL

[2] = target: T1, human TL1A extracellular domain with …; assay: KinExA, TL1A as CBP, free TL1A captured on 320-587-coated PMMA beads; repeat 2
[3] = target: T2, cynomolgus monkey TL1A (cynomolgus monkey, UniProt O95150 72-251 (human entry), limits assumed); assay: SPR: 320-587 captured on Protein A, TL1A of the species flowed over
T2 construct: recombinantly produced; whole entry named
T2 chain: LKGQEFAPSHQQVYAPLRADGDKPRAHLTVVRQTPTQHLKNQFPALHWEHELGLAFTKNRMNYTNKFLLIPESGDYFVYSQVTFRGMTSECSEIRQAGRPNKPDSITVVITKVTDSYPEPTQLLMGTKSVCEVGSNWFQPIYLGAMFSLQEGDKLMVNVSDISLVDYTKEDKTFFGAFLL

[4] = target: T3, mouse TL1A (mouse, UniProt Q5UBV8 73-252); assay: as above
T3 construct: recombinantly produced; whole entry named
T3 sequence: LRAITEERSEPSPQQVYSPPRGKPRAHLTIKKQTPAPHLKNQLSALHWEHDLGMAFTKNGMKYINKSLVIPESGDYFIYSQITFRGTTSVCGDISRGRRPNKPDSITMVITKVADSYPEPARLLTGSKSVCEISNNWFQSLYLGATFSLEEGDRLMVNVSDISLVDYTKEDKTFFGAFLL

[5] = target: T4, rat TL1A (rat, UniProt Q8K3Y7 73-252); assay: as above
T4 construct: recombinantly produced; whole entry named
T4 sequence: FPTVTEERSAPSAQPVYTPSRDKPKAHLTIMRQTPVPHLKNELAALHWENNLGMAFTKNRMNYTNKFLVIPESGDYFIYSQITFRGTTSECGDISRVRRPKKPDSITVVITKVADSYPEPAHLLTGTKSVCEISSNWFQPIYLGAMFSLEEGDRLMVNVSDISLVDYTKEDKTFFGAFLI

[6] = target: T5, guinea pig TL1A (guinea pig); assay: as above
T5 construct: recombinantly produced; whole entry named
T5 chain: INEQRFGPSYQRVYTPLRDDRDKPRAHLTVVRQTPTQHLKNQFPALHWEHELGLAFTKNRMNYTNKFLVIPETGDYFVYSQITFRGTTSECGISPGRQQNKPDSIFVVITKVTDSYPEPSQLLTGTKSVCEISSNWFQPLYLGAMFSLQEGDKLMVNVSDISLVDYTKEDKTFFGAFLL

[7] = target: T6, cat TL1A (cat); assay: as above
T6 construct: recombinantly produced; whole entry named
T6 chain: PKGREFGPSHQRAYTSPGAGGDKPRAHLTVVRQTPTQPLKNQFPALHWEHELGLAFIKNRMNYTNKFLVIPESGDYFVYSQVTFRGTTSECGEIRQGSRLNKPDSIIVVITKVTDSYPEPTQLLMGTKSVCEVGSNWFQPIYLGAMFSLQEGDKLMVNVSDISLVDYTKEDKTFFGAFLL

[8] = target: T7, rabbit TL1A (rabbit); assay: as above
T7 construct: recombinantly produced; whole entry named
T7 chain: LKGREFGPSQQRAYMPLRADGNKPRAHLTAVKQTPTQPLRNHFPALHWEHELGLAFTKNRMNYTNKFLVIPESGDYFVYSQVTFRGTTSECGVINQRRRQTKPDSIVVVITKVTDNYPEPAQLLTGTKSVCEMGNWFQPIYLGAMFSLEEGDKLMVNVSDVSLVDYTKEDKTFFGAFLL

[9] = target: T8, dog TL1A (dog); assay: as above
T8 construct: recombinantly produced; whole entry named
T8 chain: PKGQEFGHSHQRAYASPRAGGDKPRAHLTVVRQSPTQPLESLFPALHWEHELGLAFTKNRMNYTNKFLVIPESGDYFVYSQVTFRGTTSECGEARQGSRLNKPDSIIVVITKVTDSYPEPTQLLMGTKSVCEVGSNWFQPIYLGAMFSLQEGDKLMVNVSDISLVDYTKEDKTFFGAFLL

[10] = target: T1, human TL1A extracellular domain with …; assay: KinExA, TL1A as CBP, free TL1A captured on 320-587-coated PMMA beads; average of two
[11] = target: T1, human TL1A extracellular domain with …; assay: KinExA, 320-587 as CBP, free 320-587 captured on TL1A-coated Sepharose beads; repeat 1
[12] = target: T1, human TL1A extracellular domain with …; assay: KinExA, 320-587 as CBP, free 320-587 captured on TL1A-coated Sepharose beads; repeat 2
[13] = target: T1, human TL1A extracellular domain with …; assay: KinExA, 320-587 as CBP, free 320-587 captured on TL1A-coated Sepharose beads; average of two
[14] = target: T9, single-site biotinylated human TL1A (human, UniProt O95150 72-251, single-site biotinylated (site not stated)); assay: competition ELISA: antibody dilutions pre-incubated with biotinylated human TL1A (1 µg/ml), added to plate-coated DcR3/Fc; bound TL1A detected with streptavidin-HRP; blocked partner DcR3/Fc [bottom panel]
T9 construct: construct used for biotinylation not described
T9 sequence: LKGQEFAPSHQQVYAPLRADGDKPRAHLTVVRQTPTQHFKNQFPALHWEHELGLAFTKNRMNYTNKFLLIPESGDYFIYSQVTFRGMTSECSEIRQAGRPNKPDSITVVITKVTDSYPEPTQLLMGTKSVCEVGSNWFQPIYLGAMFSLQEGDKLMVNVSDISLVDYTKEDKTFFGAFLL
Procedure: 1.8. […] DR3/Fc Chimera (R&D Systems) or DcR3/Fc Chimera (R&D Systems) was coated onto a 96-well plate (Maxisorp, Nunc) at a concentration of 2 μg/ml.

[15] = target: T10, human TL1A extracellular domain with N-terminal HIS and FLAG tag (human, UniProt O95150 72-251); assay: cell-based or functional assay
T10 sequence: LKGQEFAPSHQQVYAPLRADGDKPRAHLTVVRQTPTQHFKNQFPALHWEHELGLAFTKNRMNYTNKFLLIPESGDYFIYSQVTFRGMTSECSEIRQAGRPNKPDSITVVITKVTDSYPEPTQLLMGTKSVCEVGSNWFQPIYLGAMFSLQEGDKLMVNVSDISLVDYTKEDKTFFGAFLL

[16] = target: T10, human TL1A extracellular domain with …; assay: SPR Run 8, antibody on Protein A, TL1A 5 ug/mL, timepoint 44
Excerpt: (§1) 1.5. Antibody expression and antigen binding as determined by SPR. Using a CM5 sensor chip (GE Healthcare) Protein A (Pierce) was coupled to the chip surface using an amine coupling kit (GE Healthcare). Protein A was coupled on flow cell 1 and 2 (or alternatively 3 and 4) using a BIACORE® T200. […] The amount of supernatant or purified protein (as well as the concentration) injected during the capture stage varied between runs and is specified in the header of the Tables 3-11. At the end of injection of the supernatant or purified antibody the change in response units was measured. This value was reported as Capture Level in Tables 3-11. […] The response units were measured prior to the end of the dissociation phase. […] The sensorgrams were double referenced (flow cell 2 is subtracted from flow cell 1 and a buffer blank). As there were a large number of antibody variants to screen, these were screened across different runs (Tables 3-11). […] A summary of the conditions used in each run is below:
(§2) 2.1. […] In some experiment the antibodies were purified using Protein A chromatography (See 1.4) and purified antibodies were used in BIACORE® (GE Healthcare) experiments.

[17] = target: T10, human TL1A extracellular domain with …; assay: SPR Run 8, antibody on Protein A, TL1A 5 ug/mL, timepoint 590
Excerpt: as §1, §2

[18] = target: T10, human TL1A extracellular domain with …; assay: KinExA, PMMA beads coated with 320-587, TL1A as the CBP, assay 1
Procedure: (§3) Using the time to reach equilibrium determined above, all curves were allowed to come to equilibrium in a 25° C. incubator for 3 days.

[19] = target: T10, human TL1A extracellular domain with …; assay: KinExA, PMMA beads coated with 320-587, TL1A as the CBP, assay 2
Procedure: as §3

[20] = target: T10, human TL1A extracellular domain with …; assay: KinExA, PMMA beads coated with 320-587, TL1A as the CBP, assay 3
Procedure: as §3

[21] = target: T10, human TL1A extracellular domain with …; assay: KinExA, Sepharose beads coated with TL1A, 320-587 as the CBP, assay 1
[22] = target: T10, human TL1A extracellular domain with …; assay: KinExA, Sepharose beads coated with TL1A, 320-587 as the CBP, assay 2
[23] = target: T10, human TL1A extracellular domain with …; assay: KinExA, Sepharose beads coated with TL1A, 320-587 as the CBP, assay 3
[24] = target: T10, human TL1A extracellular domain with …; assay: KinExA, Sepharose beads coated with TL1A, 320-587 as the CBP, assay 4
[25] = target: T10, human TL1A extracellular domain with …; assay: KinExA, Sepharose beads coated with TL1A, 320-587 as the CBP, assay 5
[26] = target: T10, human TL1A extracellular domain with …; assay: KinExA, PMMA beads coated with 320-587, TL1A as the CBP, average of 3 assays (SD 13.5)
Procedure: as §3

[27] = target: T10, human TL1A extracellular domain with …; assay: KinExA, Sepharose beads coated with TL1A, 320-587 as the CBP, average of 5 assays (SD 8.33)

B1: 320-587 (antibody, name in Kabat numbering, V domains shown)
VH: QVQLVQSGAEVKKPGASVKVSCKASGYTFTSYDINWVRQAPGQGLEWMGWLNPNSGYTGYAQKFQGRVTMTADRSTSTAYMELSSLRSEDTAVYYCAREVPETAAFEYWGQGTLVTVSS
VL: QSVLTQPPSVSGAPGQRVTISCTSSSSDIGAGLGVHWYQQLPGTAPKLLIEGYYNRPSGVPDRFSGSKSGTSASLTITGLLPEDEGDYYCQSWDGTLSALFGGGTKLTVLG
notes: human IgG1, lambda
kon [1]: 611000 M⁻¹ s⁻¹
kon [2]: 574000 M⁻¹ s⁻¹
binding result [3]: binds
binding result [4]: binds
binding result [5]: binds
binding result [6]: binds
binding result [7]: binds
binding result [8]: binds
binding result [9]: binds
kon [10]: 593000 M⁻¹ s⁻¹
kon [11]: 835000 M⁻¹ s⁻¹
kon [12]: 745000 M⁻¹ s⁻¹
kon [13]: 790000 M⁻¹ s⁻¹
IC50 (read off the curve) [14]: ~1 µg/mL

B2: 320-587 (antibody, name in Kabat numbering, V domains shown)
VH: QVQLVQSGAEVKKPGASVKVSCKASGYTFTSYDINWVRQAPGQGLEWMGWLNPNSGYTGYAQKFQGRVTMTADRSTSTAYMELSSLRSEDTAVYYCAREVPETAAFEYWGQGTLVTVSS
VL: QSVLTQPPSVSGAPGQRVTISCTSSSSDIGAGLGVHWYQQLPGTAPKLLIEGYYNRPSGVPDRFSGSKSGTSASLTITGLLPEDEGDYYCQSWDGTLSALFGGGTKLTVLG
notes: full-length human IgG1, lambda
Antibody IC50, TL1A induced caspase potency assay in TF-1 cells [15]: 0.001 µg/mL
Fold improvement over 320-179, TL1A induced caspase potency assay in TF-1 cells [15]: 40 fold
TL1A Binding Level (Early) [16]: 123 RU
TL1A Binding Level (Late) [17]: 122 RU
Kd [18]: 0.0334 nM
Kd [19]: 0.0571 nM
Kd [20]: 0.0341 nM
Kd [21]: 0.0404 nM
Kd [22]: 0.052 nM
Kd [23]: 0.0463 nM
Kd [24]: 0.0324 nM
Kd [25]: 0.0337 nM
Kd [26]: 0.0415 nM
Kd [27]: 0.041 nM
